Assay results taken from PMC12092789.

Target: RAD51 (UniProt Q06609)
Assay: co-immunoprecipitation, Western blot
Settings: reference: wild-type NPM1, cisplatin; sites S260

Substance: nucleophosmin 1 (NPM1) (from UniProt P06748) NPM1 S260A, cisplatin
- binding against the reference: stronger
